Experimental data reported in US20240261333A1, “NOVEL TARGETS FOR ENHANCING ANTI-TUMOR IMMUNITY” (THE BROAD INSTITUTE, INC., priority 2021, published 2024).

Tests used:
CANX (human) = CANX (human) (UniProt P27824); assay: co-IP/MS, IgG control IP of C-FLAG B3GNT2 cell lysate
SLC25A4 (human) = SLC25A4 (human) (UniProt P12235); assay: as above
RPS12 (human) = RPS12 (human) (UniProt P25398); assay: as above
ERLIN2 (human) = ERLIN2 (human) (UniProt O94905); assay: as above
RPL12 (human) = RPL12 (human) (UniProt P30050); assay: as above
RPS15 (human) = RPS15 (human) (UniProt P62841); assay: as above
HSD17B12 (human) = HSD17B12 (human) (UniProt Q53GQ0); assay: as above
RPL14 (human) = RPL14 (human) (UniProt P50914); assay: as above
PRDX2 (human) = PRDX2 (human) (UniProt P32119); assay: as above
TGM3 (human) = TGM3 (human) (UniProt Q08188); assay: as above
RPL13A (human) = RPL13A (human) (UniProt P40429); assay: as above
PRDX1 (human) = PRDX1 (human) (UniProt Q06830); assay: as above
FAM3C (human) = FAM3C (human) (UniProt Q92520); assay: as above
RPL30 (human) = RPL30 (human) (UniProt P62888); assay: as above
PCBP1 (human) = PCBP1 (human) (UniProt Q15365); assay: as above
PIP (human) = PIP (human) (UniProt P12273); assay: as above
RPL24 (human) = RPL24 (human) (UniProt P83731); assay: as above
IPO4 (human) = IPO4 (human) (UniProt Q8TEX9); assay: as above
SQSTM1 (human) = SQSTM1 (human) (UniProt Q13501); assay: as above
ATP1A1 (human) = ATP1A1 (human) (UniProt P05023); assay: as above
GCN1 (human) = GCN1 (human) (UniProt Q92616); assay: as above
RPS7 (human) = RPS7 (human) (UniProt P62081); assay: as above
RPS3A (human) = RPS3A (human) (UniProt P61247); assay: as above
UQCRC2 (human) = UQCRC2 (human) (UniProt P22695); assay: as above
HSPB1 = HSPB1 (UniProt P04792); assay: co-IP, anti-FLAG, C-FLAG B3GNT2 cell lysate, mass spectrometry
SSRP1 = SSRP1 (UniProt Q08945); assay: as above
MTDH = MTDH (UniProt Q86UE4); assay: as above
LIMA1 = LIMA1 (UniProt Q9UHB6); assay: as above
PBXIP1 = PBXIP1 (UniProt Q96AQ6); assay: as above
SRSF1 = SRSF1 (UniProt Q07955); assay: as above
EIF4G1 = EIF4G1 (UniProt Q04637); assay: as above
HNRNPU = HNRNPU (UniProt Q00839); assay: as above
RPL3 = RPL3 (UniProt P39023); assay: as above
ITGB3 = ITGB3 (UniProt P05106); assay: as above
PSMA7 = PSMA7 (UniProt O14818); assay: as above
RPL5 = RPL5 (UniProt P46777); assay: as above
RPL27A = RPL27A (UniProt P46776); assay: as above
NCCRP1 = NCCRP1 (UniProt Q6ZVX7); assay: as above
RPS19 = RPS19 (UniProt P39019); assay: as above

Chain of UQCRC2 (human) (P22695 15-453 limits assumed): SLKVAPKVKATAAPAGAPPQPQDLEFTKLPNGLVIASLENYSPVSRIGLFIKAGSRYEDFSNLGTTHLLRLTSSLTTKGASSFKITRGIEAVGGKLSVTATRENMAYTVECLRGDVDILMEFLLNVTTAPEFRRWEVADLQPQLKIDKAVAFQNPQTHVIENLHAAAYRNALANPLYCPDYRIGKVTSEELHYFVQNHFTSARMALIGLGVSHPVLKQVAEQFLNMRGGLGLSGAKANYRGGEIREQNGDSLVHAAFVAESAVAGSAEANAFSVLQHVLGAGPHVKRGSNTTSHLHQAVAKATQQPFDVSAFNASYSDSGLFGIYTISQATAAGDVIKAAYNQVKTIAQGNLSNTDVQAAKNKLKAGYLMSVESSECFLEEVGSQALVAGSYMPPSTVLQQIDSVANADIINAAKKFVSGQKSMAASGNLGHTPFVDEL
Chain of TGM3 (human) (Q08188 2-693 limits assumed): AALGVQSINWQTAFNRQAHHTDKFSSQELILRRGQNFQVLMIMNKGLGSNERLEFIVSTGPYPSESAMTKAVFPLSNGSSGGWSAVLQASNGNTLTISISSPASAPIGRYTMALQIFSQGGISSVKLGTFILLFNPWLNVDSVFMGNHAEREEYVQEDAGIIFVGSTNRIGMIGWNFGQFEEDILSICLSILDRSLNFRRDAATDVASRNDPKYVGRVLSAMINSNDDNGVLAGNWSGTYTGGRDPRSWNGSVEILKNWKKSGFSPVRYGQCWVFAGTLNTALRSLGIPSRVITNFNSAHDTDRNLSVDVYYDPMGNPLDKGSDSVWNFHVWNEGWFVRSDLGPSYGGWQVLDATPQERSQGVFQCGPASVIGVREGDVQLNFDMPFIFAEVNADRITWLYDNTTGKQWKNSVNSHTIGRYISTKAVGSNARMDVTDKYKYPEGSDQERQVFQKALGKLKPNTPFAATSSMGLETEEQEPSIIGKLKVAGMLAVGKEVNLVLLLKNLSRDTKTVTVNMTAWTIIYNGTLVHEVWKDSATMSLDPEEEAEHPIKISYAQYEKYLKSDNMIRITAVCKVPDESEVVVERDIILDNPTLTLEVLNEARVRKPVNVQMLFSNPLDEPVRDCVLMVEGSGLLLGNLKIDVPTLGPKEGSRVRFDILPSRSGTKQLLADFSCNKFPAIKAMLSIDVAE
Chain of LIMA1 (Q9UHB6 other isoform, or with tags, fused parts or gaps limits assumed): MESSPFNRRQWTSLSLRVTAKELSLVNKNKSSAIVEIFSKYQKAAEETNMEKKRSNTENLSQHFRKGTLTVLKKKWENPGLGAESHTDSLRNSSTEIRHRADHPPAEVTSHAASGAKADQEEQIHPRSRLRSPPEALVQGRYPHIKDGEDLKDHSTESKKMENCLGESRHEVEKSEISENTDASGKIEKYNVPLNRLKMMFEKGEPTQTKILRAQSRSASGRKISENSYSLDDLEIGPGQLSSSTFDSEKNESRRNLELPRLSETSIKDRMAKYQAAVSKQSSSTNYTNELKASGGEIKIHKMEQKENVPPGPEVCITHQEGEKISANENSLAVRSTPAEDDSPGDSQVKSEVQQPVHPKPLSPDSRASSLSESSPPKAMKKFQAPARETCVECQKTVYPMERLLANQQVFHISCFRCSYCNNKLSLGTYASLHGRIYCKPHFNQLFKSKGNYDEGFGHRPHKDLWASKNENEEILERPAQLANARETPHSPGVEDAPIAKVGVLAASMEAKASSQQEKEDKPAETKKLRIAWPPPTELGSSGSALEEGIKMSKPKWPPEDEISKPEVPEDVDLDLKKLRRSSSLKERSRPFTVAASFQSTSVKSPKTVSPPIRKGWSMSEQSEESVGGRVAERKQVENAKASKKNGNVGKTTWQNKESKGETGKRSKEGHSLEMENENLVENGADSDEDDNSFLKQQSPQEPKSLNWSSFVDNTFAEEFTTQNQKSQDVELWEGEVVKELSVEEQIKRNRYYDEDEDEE
Chain of ITGB3 (P05106 27-788 limits assumed): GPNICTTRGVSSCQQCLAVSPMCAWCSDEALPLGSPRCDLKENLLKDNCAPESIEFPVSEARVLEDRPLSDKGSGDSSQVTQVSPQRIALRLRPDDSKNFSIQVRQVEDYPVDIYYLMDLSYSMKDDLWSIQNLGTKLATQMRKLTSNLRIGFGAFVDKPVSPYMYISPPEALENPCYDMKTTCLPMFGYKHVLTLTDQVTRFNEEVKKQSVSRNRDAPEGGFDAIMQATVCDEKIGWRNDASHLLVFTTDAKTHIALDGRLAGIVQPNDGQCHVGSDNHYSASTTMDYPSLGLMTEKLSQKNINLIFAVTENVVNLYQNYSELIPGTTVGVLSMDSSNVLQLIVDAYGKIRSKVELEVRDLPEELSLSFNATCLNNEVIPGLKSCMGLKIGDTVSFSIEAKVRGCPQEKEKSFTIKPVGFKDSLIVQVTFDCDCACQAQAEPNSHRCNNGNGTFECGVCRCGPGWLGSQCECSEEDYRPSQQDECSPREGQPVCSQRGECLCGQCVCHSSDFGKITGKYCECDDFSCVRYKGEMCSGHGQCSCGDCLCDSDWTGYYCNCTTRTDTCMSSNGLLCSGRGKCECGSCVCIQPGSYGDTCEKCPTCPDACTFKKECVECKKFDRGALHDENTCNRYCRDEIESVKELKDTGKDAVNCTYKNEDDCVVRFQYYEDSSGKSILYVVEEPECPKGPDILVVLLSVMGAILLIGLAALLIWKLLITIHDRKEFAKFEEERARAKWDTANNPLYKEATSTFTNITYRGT
Chain of SRSF1 (Q07955 2-248 limits assumed): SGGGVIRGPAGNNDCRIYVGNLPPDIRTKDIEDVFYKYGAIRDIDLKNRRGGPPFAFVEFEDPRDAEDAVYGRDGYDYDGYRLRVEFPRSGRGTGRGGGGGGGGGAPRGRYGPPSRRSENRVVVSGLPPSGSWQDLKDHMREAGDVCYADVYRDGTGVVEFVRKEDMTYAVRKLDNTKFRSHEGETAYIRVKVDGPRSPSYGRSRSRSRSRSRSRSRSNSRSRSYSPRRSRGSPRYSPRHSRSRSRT
Chain of SSRP1 (Q08945 2-709 limits assumed): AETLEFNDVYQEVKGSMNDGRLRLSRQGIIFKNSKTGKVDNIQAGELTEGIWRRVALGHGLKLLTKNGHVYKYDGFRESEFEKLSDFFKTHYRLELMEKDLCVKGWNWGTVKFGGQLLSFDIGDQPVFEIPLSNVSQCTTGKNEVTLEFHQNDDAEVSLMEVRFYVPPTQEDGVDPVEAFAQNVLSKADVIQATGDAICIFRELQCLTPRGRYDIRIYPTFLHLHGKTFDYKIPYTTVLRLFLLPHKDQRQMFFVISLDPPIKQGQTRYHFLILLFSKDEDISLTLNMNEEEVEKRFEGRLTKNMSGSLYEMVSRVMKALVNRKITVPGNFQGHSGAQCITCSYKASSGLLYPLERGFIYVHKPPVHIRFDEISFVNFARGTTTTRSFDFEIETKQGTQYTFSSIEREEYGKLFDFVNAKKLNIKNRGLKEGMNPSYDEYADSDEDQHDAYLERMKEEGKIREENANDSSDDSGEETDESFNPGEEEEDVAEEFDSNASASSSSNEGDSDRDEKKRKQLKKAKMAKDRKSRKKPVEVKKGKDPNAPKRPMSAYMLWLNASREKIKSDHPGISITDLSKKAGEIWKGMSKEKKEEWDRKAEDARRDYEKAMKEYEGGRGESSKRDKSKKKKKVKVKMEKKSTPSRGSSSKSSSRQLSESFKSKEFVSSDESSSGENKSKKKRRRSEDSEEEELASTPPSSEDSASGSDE
Chain of HNRNPU (Q00839 2-825 limits assumed): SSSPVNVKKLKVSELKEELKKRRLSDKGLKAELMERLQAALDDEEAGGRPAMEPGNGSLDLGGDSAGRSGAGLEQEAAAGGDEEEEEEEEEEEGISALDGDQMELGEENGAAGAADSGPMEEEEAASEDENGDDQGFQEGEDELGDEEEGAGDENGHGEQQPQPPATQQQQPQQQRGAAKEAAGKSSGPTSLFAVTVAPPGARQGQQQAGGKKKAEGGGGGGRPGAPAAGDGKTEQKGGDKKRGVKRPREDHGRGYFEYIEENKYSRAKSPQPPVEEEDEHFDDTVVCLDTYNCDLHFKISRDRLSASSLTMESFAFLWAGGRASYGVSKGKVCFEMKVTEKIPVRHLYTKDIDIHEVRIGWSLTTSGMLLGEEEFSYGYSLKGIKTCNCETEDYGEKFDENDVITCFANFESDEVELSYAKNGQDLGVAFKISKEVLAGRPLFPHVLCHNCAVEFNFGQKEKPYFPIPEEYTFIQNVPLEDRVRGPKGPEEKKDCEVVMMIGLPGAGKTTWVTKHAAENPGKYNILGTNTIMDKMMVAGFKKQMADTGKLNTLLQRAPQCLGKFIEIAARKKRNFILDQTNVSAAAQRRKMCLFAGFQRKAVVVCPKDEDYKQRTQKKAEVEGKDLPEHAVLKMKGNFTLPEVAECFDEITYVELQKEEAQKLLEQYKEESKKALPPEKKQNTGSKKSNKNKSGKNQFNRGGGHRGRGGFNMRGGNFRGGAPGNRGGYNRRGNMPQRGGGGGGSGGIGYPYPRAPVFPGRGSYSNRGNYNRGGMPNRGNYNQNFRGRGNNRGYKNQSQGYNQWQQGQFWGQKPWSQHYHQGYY
Chain of NCCRP1 (Q6ZVX7 whole entry): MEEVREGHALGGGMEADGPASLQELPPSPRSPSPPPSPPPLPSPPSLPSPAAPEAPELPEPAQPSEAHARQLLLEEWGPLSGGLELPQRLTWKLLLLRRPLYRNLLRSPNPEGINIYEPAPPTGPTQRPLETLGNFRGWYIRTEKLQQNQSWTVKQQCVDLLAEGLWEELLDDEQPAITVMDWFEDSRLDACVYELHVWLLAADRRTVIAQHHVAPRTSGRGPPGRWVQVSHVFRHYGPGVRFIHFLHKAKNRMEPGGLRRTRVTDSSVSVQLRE
Chain of PRDX2 (human) (P32119 2-198 limits assumed): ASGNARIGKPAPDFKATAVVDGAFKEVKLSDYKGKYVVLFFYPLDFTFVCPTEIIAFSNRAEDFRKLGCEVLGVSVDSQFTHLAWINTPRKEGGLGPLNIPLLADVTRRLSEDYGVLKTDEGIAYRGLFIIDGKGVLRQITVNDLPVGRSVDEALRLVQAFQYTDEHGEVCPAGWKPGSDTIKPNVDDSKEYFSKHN

**Q.** “IgG control (Millipore Sigma 12-371) (antibody)” was tested. Which co-IP mass spectrometry count (CANX (human)) did it give?
**A.** 0

**Q.** And the co-IP mass spectrometry count (SLC25A4 (human))?
**A.** 0

**Q.** And the co-IP mass spectrometry count (RPS12 (human))?
**A.** 4

**Q.** And the co-IP mass spectrometry count (ERLIN2 (human))?
**A.** 0

**Q.** What about the co-IP mass spectrometry count (RPL12 (human)) of the same substance?
**A.** 5

**Q.** And the co-IP mass spectrometry count (RPS15 (human))?
**A.** 2

**Q.** What about the co-IP mass spectrometry count (HSD17B12 (human)) of the same substance?
**A.** 0

**Q.** What about the co-IP mass spectrometry count (RPL14 (human)) of the same substance?
**A.** 8

**Q.** And the co-IP mass spectrometry count (PRDX2 (human))?
**A.** 0

**Q.** And the co-IP mass spectrometry count (TGM3 (human))?
**A.** 3

**Q.** And the co-IP mass spectrometry count (RPL13A (human))?
**A.** 0

**Q.** And the co-IP mass spectrometry count (PRDX1 (human))?
**A.** 0

**Q.** And the co-IP mass spectrometry count (FAM3C (human))?
**A.** 0

**Q.** What about the co-IP mass spectrometry count (RPL30 (human)) of the same substance?
**A.** 4

**Q.** And the co-IP mass spectrometry count (PCBP1 (human))?
**A.** 3

**Q.** And the co-IP mass spectrometry count (PIP (human))?
**A.** 2

**Q.** What about the co-IP mass spectrometry count (RPL24 (human)) of the same substance?
**A.** 3

**Q.** And the co-IP mass spectrometry count (IPO4 (human))?
**A.** 0

**Q.** And the co-IP mass spectrometry count (SQSTM1 (human))?
**A.** 3

**Q.** And the co-IP mass spectrometry count (ATP1A1 (human))?
**A.** 0

**Q.** What about the co-IP mass spectrometry count (GCN1 (human)) of the same substance?
**A.** 0

**Q.** And the co-IP mass spectrometry count (RPS7 (human))?
**A.** 5

**Q.** And the co-IP mass spectrometry count (RPS3A (human))?
**A.** 10

**Q.** And the co-IP mass spectrometry count (UQCRC2 (human))?
**A.** 0

**Q.** With “C-terminal FLAG tagged B3GNT2 (from UniProt Q9NY97 1-397) (enzyme)” as the substance, how does the co-IP mass spectrometry count (HSPB1) read?
**A.** 4

**Q.** And the co-IP mass spectrometry count (SSRP1)?
**A.** 6

**Q.** What about the co-IP mass spectrometry count (MTDH) of the same substance?
**A.** 6

**Q.** And the co-IP mass spectrometry count (LIMA1)?
**A.** 2

**Q.** What about the co-IP mass spectrometry count (PBXIP1) of the same substance?
**A.** 4

**Q.** And the co-IP mass spectrometry count (SRSF1)?
**A.** 9

**Q.** What about the co-IP mass spectrometry count (EIF4G1) of the same substance?
**A.** 6

**Q.** And the co-IP mass spectrometry count (HNRNPU)?
**A.** 12

**Q.** And the co-IP mass spectrometry count (RPL3)?
**A.** 25

**Q.** And the co-IP mass spectrometry count (ITGB3)?
**A.** 3

**Q.** What about the co-IP mass spectrometry count (PSMA7) of the same substance?
**A.** 2

**Q.** And the co-IP mass spectrometry count (RPL5)?
**A.** 6

**Q.** What about the co-IP mass spectrometry count (RPL27A) of the same substance?
**A.** 10

**Q.** What about the co-IP mass spectrometry count (NCCRP1) of the same substance?
**A.** 4

**Q.** And the co-IP mass spectrometry count (RPS19)?
**A.** 10
